Paper PMC7279355, “Preparation of Biphenyl-Conjugated Bromotyrosine for Inhibition of PD-1/PD-L1 Immune Checkpoint Interactions” (International Journal of Molecular Sciences, 2020)

Legend:
PD-L1 (Homo sapiens) = PD-L1 (Homo sapiens) (UniProt Q9NZQ7); conditions: cited from earlier work
[1] = molecular target: PD-L1, histidine (His)-tagged (UniProt Q9NZQ7); assay: AlphaScreen or HTRF; AlphaLISA kit AL356 HV/C/F (PerkinElmer), competition: biotin-conjugated PD-1 on streptavidin-coated donor beads, His-tagged PD-L1 on anti-His acceptor beads; 2 uL each of inhibitor dilution, PD-L1 (25 nM), PD-1 (25 nM) and the two beads in 10 uL; 25 °C, 90 min; IC50 from sigmoidal fit
Sequence of PD-L1, histidine (His)-tagged (Q9NZQ7 19-238): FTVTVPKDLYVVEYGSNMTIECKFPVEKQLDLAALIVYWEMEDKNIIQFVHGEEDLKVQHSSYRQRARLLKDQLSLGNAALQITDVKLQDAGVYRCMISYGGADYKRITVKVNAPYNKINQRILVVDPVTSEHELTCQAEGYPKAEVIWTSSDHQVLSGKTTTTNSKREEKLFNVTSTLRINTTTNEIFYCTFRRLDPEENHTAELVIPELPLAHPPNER

Sequence of PD-L1 (Homo sapiens) (Q9NZQ7 19-238): as above
Sequence of PD-1 (Q15116 25-170): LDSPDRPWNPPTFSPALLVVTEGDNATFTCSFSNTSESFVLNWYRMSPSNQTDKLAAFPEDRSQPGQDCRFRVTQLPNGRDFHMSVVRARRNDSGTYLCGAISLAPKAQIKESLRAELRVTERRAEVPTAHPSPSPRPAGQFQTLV

| IC50 [1] [µM] | Substance | Kd (PD-L1 (Homo sapiens)) [µM] |
| --- | --- | --- |
| – | PD-1 (from UniProt Q15116) | 6.4 |
| 308 | CERXNKM (peptide) | – |
| 312 | FWRXNNI (peptide) | – |
